The source of these data is publication PMC2607524, “The role of conserved residues of chagasin in the inhibition of cysteine peptidases” (Febs Letters, 2008).

T1: papain (UniProt P00784 134-345)
T1 construct: source: bought: Sigma
T1 sequence (looked up): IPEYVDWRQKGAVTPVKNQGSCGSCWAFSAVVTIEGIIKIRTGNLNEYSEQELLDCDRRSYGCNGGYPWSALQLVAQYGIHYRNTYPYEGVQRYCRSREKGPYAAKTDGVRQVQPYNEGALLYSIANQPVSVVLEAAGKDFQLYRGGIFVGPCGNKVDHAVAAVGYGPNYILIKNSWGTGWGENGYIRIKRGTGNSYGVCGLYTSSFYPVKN

B1: chagasin (recombinant His-tagged wild type) (natural protein)
chain: MSHKVTKAHNGATLTVAVGELVEIQLPSNPTTGFAWYFEGGTKESPNESMFTVENKYFPPDSKLLGAGGTEHFHVTVKAAGTHAVNLTYMRPWTGPSHDSERFTVYLKAN
notes: also called WT; wild type chagasin; source: E. coli M15/pRep4, purified (Ni metal chelate column, HQ ion exchange)
B2: chagasin Y89S (natural protein)
chain: MSHKVTKAHNGATLTVAVGELVEIQLPSNPTTGFAWYFEGGTKESPNESMFTVENKYFPPDSKLLGAGGTEHFHVTVKAAGTHAVNLTSMRPWTGPSHDSERFTVYLKAN
notes: pQE30 construct as m1; also called pGL1120; source: E. coli M15/pRep4, purified (Ni metal chelate column, HQ ion exchange)
B3: chagasin Y89F (natural protein)
chain: MSHKVTKAHNGATLTVAVGELVEIQLPSNPTTGFAWYFEGGTKESPNESMFTVENKYFPPDSKLLGAGGTEHFHVTVKAAGTHAVNLTFMRPWTGPSHDSERFTVYLKAN
notes: pQE30 construct as m1; also called pGL1119; source: E. coli M15/pRep4, purified (Ni metal chelate column, HQ ion exchange)
B4: chagasin T31A/T32A double mutant (natural protein)
chain: MSHKVTKAHNGATLTVAVGELVEIQLPSNPAAGFAWYFEGGTKESPNESMFTVENKYFPPDSKLLGAGGTEHFHVTVKAAGTHAVNLTYMRPWTGPSHDSERFTVYLKAN
notes: pQE30 construct as m1; also called pGL1258; source: E. coli M15/pRep4, purified (Ni metal chelate column, HQ ion exchange)
B5: chagasin T32Y (natural protein)
chain: MSHKVTKAHNGATLTVAVGELVEIQLPSNPTYGFAWYFEGGTKESPNESMFTVENKYFPPDSKLLGAGGTEHFHVTVKAAGTHAVNLTYMRPWTGPSHDSERFTVYLKAN
notes: pQE30 construct as m1; also called pGL1198; source: E. coli M15/pRep4, purified (Ni metal chelate column, HQ ion exchange)
B6: chagasin T31A (natural protein)
chain: MSHKVTKAHNGATLTVAVGELVEIQLPSNPATGFAWYFEGGTKESPNESMFTVENKYFPPDSKLLGAGGTEHFHVTVKAAGTHAVNLTYMRPWTGPSHDSERFTVYLKAN
notes: pQE30 construct as m1; also called pGL1209; source: E. coli M15/pRep4, purified (Ni metal chelate column, HQ ion exchange)
B7: chagasin T31S (natural protein)
chain: MSHKVTKAHNGATLTVAVGELVEIQLPSNPSTGFAWYFEGGTKESPNESMFTVENKYFPPDSKLLGAGGTEHFHVTVKAAGTHAVNLTYMRPWTGPSHDSERFTVYLKAN
notes: pQE30 construct as m1; also called pGL1299; source: E. coli M15/pRep4, purified (Ni metal chelate column, HQ ion exchange)
B8: chagasin T31V (natural protein)
chain: MSHKVTKAHNGATLTVAVGELVEIQLPSNPVTGFAWYFEGGTKESPNESMFTVENKYFPPDSKLLGAGGTEHFHVTVKAAGTHAVNLTYMRPWTGPSHDSERFTVYLKAN
notes: pQE30 construct as m1; also called pGL1298; source: E. coli M15/pRep4, purified (Ni metal chelate column, HQ ion exchange)
B9: chagasin T32S (natural protein)
chain: MSHKVTKAHNGATLTVAVGELVEIQLPSNPTSGFAWYFEGGTKESPNESMFTVENKYFPPDSKLLGAGGTEHFHVTVKAAGTHAVNLTYMRPWTGPSHDSERFTVYLKAN
notes: pQE30 construct as m1; also called pGL1195; source: E. coli M15/pRep4, purified (Ni metal chelate column, HQ ion exchange)
B10: chagasin T32V (natural protein)
chain: MSHKVTKAHNGATLTVAVGELVEIQLPSNPTVGFAWYFEGGTKESPNESMFTVENKYFPPDSKLLGAGGTEHFHVTVKAAGTHAVNLTYMRPWTGPSHDSERFTVYLKAN
notes: pQE30 construct as m1; also called pGL1196; source: E. coli M15/pRep4, purified (Ni metal chelate column, HQ ion exchange)
B11: chagasin P30A (natural protein)
chain: MSHKVTKAHNGATLTVAVGELVEIQLPSNATTGFAWYFEGGTKESPNESMFTVENKYFPPDSKLLGAGGTEHFHVTVKAAGTHAVNLTYMRPWTGPSHDSERFTVYLKAN
notes: pQE30 construct as m1; also called pGL1194; source: E. coli M15/pRep4, purified (Ni metal chelate column, HQ ion exchange)
B12: chagasin W93A (natural protein)
chain: MSHKVTKAHNGATLTVAVGELVEIQLPSNPTTGFAWYFEGGTKESPNESMFTVENKYFPPDSKLLGAGGTEHFHVTVKAAGTHAVNLTYMRPATGPSHDSERFTVYLKAN
notes: pQE30 construct as m1; also called pGL1199; source: E. coli M15/pRep4, purified (Ni metal chelate column, HQ ion exchange)
B13: chagasin T31Y (natural protein)
chain: MSHKVTKAHNGATLTVAVGELVEIQLPSNPYTGFAWYFEGGTKESPNESMFTVENKYFPPDSKLLGAGGTEHFHVTVKAAGTHAVNLTYMRPWTGPSHDSERFTVYLKAN
notes: pQE30 construct as m1; also called pGL1210; source: E. coli M15/pRep4, purified (Ni metal chelate column, HQ ion exchange)
B14: chagasin T32E (natural protein)
chain: MSHKVTKAHNGATLTVAVGELVEIQLPSNPTEGFAWYFEGGTKESPNESMFTVENKYFPPDSKLLGAGGTEHFHVTVKAAGTHAVNLTYMRPWTGPSHDSERFTVYLKAN
notes: pQE30 construct as m1; also called pGL1197; source: E. coli M15/pRep4, purified (Ni metal chelate column, HQ ion exchange)
B15: chagasin T32A (natural protein)
chain: MSHKVTKAHNGATLTVAVGELVEIQLPSNPTAGFAWYFEGGTKESPNESMFTVENKYFPPDSKLLGAGGTEHFHVTVKAAGTHAVNLTYMRPWTGPSHDSERFTVYLKAN
notes: pQE30 construct as m1; also called pGL1211; source: E. coli M15/pRep4, purified (Ni metal chelate column, HQ ion exchange)
B16: chagasin ΔT31–T32 (devoid of residues T31 and T32) (natural protein)
chain: MSHKVTKAHNGATLTVAVGELVEIQLPSNPGFAWYFEGGTKESPNESMFTVENKYFPPDSKLLGAGGTEHFHVTVKAAGTHAVNLTYMRPWTGPSHDSERFTVYLKAN
notes: source: E. coli M15/pRep4, purified (Ni metal chelate column, HQ ion exchange)

The target in the first assay is human cathepsin L (human). Nature of the assay: enzyme inhibition kinetics (Ki for tight-binding inhibitors); peptidase incubated with different chagasin concentrations for 15 min at room temperature, residual hydrolysis of 5 μM Z-Phe-Arg-MCA; Ki from Kiapp with KM 1.5, 2.5 and 60 μM for cruzipain, cathepsin L and papain; methods: RB buffer (50 mM Na2PO4, pH 6.5, 200 mM NaCl, 5 mM EDTA, 2.5 mM DTT), 25 °C; footnote of Table 2: 50 mM Na2HPO4, 100 mM NaCl, 5 mM EDTA, pH 6.5, 5% DMSO, 2.5 mM DTT, 28 °C.
Settings: not given
Molecule “chagasin T31V (from UniProt Q966X9 1-110) (natural protein)” returned a Ki of 9.7 pM.
Still for that read-out and setting: the value for “chagasin T31S (from UniProt Q966X9 1-110) (natural protein)” was 4.9 pM; that for “chagasin T32S (from UniProt Q966X9 1-110) (natural protein)” was 32 pM; that for “chagasin P30A (from UniProt Q966X9 1-110) (natural protein)” was 45 pM.
On the same count and under the same terms, the value for “chagasin T31A/T32A double mutant (from UniProt Q966X9 1-110) (natural protein)” was 1.8 pM; that for “chagasin ΔT31–T32 (devoid of residues T31 and T32) (from UniProt Q966X9 1-110) (natural protein)” was 2200 pM.
The same measure, in the same setting: to “chagasin T32Y (from UniProt Q966X9 1-110) (natural protein)” belongs 2.7 pM.
Regarding “chagasin T32V (from UniProt Q966X9 1-110) (natural protein)”, the Ki was found to be 20 pM.
In the case of “chagasin W93A (from UniProt Q966X9 1-110) (natural protein)”, the Ki worked out at 825 pM.
As for “chagasin T32A (from UniProt Q966X9 1-110) (natural protein)”, the Ki is 14 pM.
The same measure, in the same setting: the value for “chagasin T31Y (from UniProt Q966X9 1-110) (natural protein)” was 6.8 pM.
“chagasin T31A (from UniProt Q966X9 1-110) (natural protein)” came in with a Ki of 3.9 pM.
Still for that read-out and setting: to B1 belongs 7.3 pM.

Another assay has as its target T1, papain. Nature of the assay: enzyme inhibition kinetics (Ki for tight-binding inhibitors); peptidase incubated with different chagasin concentrations for 15 min at room temperature, residual hydrolysis of 5 μM Z-Phe-Arg-MCA; Ki from Kiapp with KM 1.5, 2.5 and 60 μM for cruzipain, cathepsin L and papain; methods: RB buffer (50 mM Na2PO4, pH 6.5, 200 mM NaCl, 5 mM EDTA, 2.5 mM DTT), 25 °C; footnote of Table 2: 50 mM Na2HPO4, 100 mM NaCl, 5 mM …. The following applies: both partners purified.
B1 came in with a Ki of 5 ± 0.7 pM.
Same read-out and setting: to B2 belongs 316 ± 17 pM.
In the case of B3, the binding result is “binds”.
B4 gave a Ki of 27 ± 1.5 pM.

A further assay concerns the target T2, cruzipain (Trypanosoma cruzi, UniProt P25779 123-467).
T2 construct: also called T. cruzi CP cruzipain; major cysteine peptidase of T. cruzi
The assay is described as above. The following applies: both partners purified.
The molecule B1 registered a Ki of 7.6 pM.
Still for that read-out and setting: the value for B5 was 16 pM; that for B6 was 317 pM; that for B7 was 11 pM.
Same read-out and setting: the value for B2 was 25 pM.
On the same count and under the same terms, the value for B8 was 70 pM.
The molecule B9 returned a Ki of 20 pM.
Still for that read-out and setting: to B10 belongs 193 pM.
Same read-out and setting: the value for B11 was 20 pM; that for B12 was 31 pM; that for B3 was 20 pM.
Still for that read-out and setting: the value for B13 was 747 pM.
For the molecule B14, the Ki turned out to be 11 pM.
In the case of B15, the Ki came to 16 pM.
The same measure, in the same setting: the value for B4 was 1060 pM.
B16 showed a Ki of 5870 pM.
